Measurements taken from patent US6458552B1, “Metalloprotease peptide substrates and methods” (Ortho-McNeil Pharmaceutical, Inc., priority 2000, dated 2002).

T1: Mat FRET peptide Z-RPLGLAR-X (not fully specified)
T1 chain: RPLGLAR

T2: KL1 FRET peptide X-PPVAASSLRN-Z (not fully specified)
T2 chain: PPVAASSLRN

T3: CatE FRET peptide X-KPAAFFRL-Z (not fully specified)
T3 chain: KPAAFFRL

T4: AD8P FRET peptide X-RTAAVFRP-Z (not fully specified)
T4 chain: RTAAVFRP

T5: CD27L FRET peptide X-RFAQAQQQLP-Z (not fully specified)
T5 chain: RFAQAQQQLP

T6: AD8P2 FRET peptide X-RVRRALPS-Z (not fully specified)
T6 chain: RVRRALPS

T7: TNFα FRET peptide X-PLAQAVRSSS-Z (not fully specified)
T7 chain: PLAQAVRSSS

T8: TNFB2 FRET peptide X-PSAAQTARQHP-Z (not fully specified)
T8 chain: PSAAQTARQHP

T9: TNFα(-4 + 6) FRET peptide Z-LAQAVRSSSR-X (not fully specified)
T9 chain: LAQAVRSSSR

T10: KAS-1 FRET peptide Z-RGVVNASSRLAK-X (not fully specified)
T10 chain: RGVVNASSRLAK

T11: CatE1 FRET peptide X-KPAKFFRL-Z (not fully specified)
T11 chain: KPAKFFRL

B1: soluble recombinant human ADAM15, active form (protein)
chain: DVVTETKTVELVIVADHSEAQKYRDFQHLLNRTLEVALLLDTFFRPLNVRVALVGLEAWTQRDLVEISPNPAVTLENFLHWRRAHLLPRLPHDSAQLVTGTSFSGPTVGMAIQNSICSPDFSGGVNMDHSTSILGVASSIAHELGHSLGLDHDLPGNSCPCPGPAPAKTCIMEASTDFLPGLNFSNCSRRALEKALLDGMGSCLFERL
B2: soluble recombinant human MDC-L, active form (protein)
chain: VQEHEKYIEYYLVLDNGEFKRYNENQDEIRKRVFEMANYVNMLYKKLNTHVALVGMEIWTDKDKIKITPNASFTLENFSKWRGSVLSRRKRHDIAQLITATELAGTTVGLAFMSTMCSPYSVGVVQDHSDNLLRVAGTMAHEMGHNFGMFHDDYSCKCPSTICVMDKALSFYIPTDFSSCSRLSYDKFFEDKLSNCLFNAP
B3: MDC-L: recombinant soluble MDC-L: pro- and protease domains with C-terminal FLAG epitope (protein)
chain: B2 chain
modifications: left off: small tags and cut ends
B4: soluble recombinant human ADAM8, active (processed) form (protein)
chain: RYVELYVVVDNAEFQMLGSEAAVRHRVLEVVNHVDKLYQKLNFRVVLVGLEIWNSQDRFHVSPDPSVTLENLLTWQARQRTRRHLHDNVQLITGVDFTGTTVGFARVSAMCSHSSGAVNQDHSKNPVGVACTMAHEMGHNLGMDHDENVQGCRCQERFEAGRCIMAGSIGSSFPRMFSDCSQAYLESFLERPQSVCLANAP
B5: recombinant ADAM17 (protein)
chain: RADPDPMKNTCKLLVVADHRFYRYMGRGEESTTTNYLIELIDRVDDIYRNTSWDNAGFKGYGIQIEQIRILKSPQEVKPGEKHYNMAKSYPNEEKDAWDVKMLLEQFSFDIAEEASKVCLAHLFTYQDFDMGTLGLAYVGSPRANSHGGVCPKAYYSPVGKKNIYLNSGLTSTKNYGKTILTKEADLVTTHELGHNFGAEHDPDGLAECAPNEDQGGKYVMYPIAVSGDHENNKMFSNCSKQSIYKTIESKAQECFQERSNKV

Assays:
ADAM8 = ADAM8 protein expression in THP-1 cells (immunoblot); type: cell-based, human; details: LPS 100 ng/ml 16 hours, IFN-γ 200U/ml 24 hours
Protocol: Polyclonal antisera against ADAM8 and ADAM15 were generated by immunizing rabbits with KLH-conjugated peptides corresponding to the C-terminal sequences of ADAM8 and 15, respectively. The antisera were used to detect ADAM8 and ADAM15 in THP-1 cell lysates. THP-1 cells were treated with interferon(IFN)-γ (200U/ml) or bacterial lipopolysaccharide (LPS) (100 ng/ml), for 24 hours or 16 hours, respectively. The cells were then harvested, washed with PBS and lysed in PBS containing 1% NP-40 and Complete® protease inhibitors. The cell extracts were analyzed for expression of ADAM8 and ADAM15 by SDS-PAGE, transfer to nitrocellulose, and immunoblotting with the antisera to ADAM8 and ADAM15, respectively. […] The corresponding pre-immune sera gave no positive bands at these molecular weights for THP-1 cell extracts in similar assays.

[1] = biological target: T1, Mat FRET peptide Z-RPLGLAR-X
[2] = biological target: T2, KL1 FRET peptide X-PPVAASSLRN-Z
[3] = biological target: T3, CatE FRET peptide X-KPAAFFRL-Z
[4] = biological target: T4, AD8P FRET peptide X-RTAAVFRP-Z
[5] = biological target: T5, CD27L FRET peptide X-RFAQAQQQLP-Z
[6] = biological target: T6, AD8P2 FRET peptide X-RVRRALPS-Z
[7] = biological target: T7, TNFα FRET peptide X-PLAQAVRSSS-Z
[8] = biological target: T8, TNFB2 FRET peptide X-PSAAQTARQHP-Z
[9] = biological target: T9, TNFα(-4 + 6) FRET peptide Z-LAQAVRSSSR-X
[10] = biological target: T10, KAS-1 FRET peptide Z-RGVVNASSRLAK-X
[11] = biological target: T11, CatE1 FRET peptide X-KPAKFFRL-Z
membrane-bound CD23 = test: Cleavage of CD23 from the surface of U937 cells by ADAM enzymes (flow cytometry); type: cell-based, human; details: U-937 cells, one hour at 37° C.
Protocol: U-937 (ATCC CRL-1593.2), a monoblastoid cell line, were harvested, washed and resuspended in HEPES-buffered saline, pH 7.5. Then the cells were treated for one hour at 37° C. in the absence or presence of ADAM8, ADAM17, ADAM15 or MDC-L. As a further control, some cells were incubated in the presence of ADAM8, ADAM17, ADAM15 or MDC-L with the addition of Inhibitor C. Intact, membrane-bound CD23 was then detected by staining the cells with a FITC-conjugated anti-human CD23 antibody (Pharmingen) and detection by flow cytometry.

| Molecule | Relative proteolytic activity [1] | Relative proteolytic activity [2] | Relative proteolytic activity [3] | Relative proteolytic activity [4] | Relative proteolytic activity [5] | Relative proteolytic activity [6] | Relative proteolytic activity [7] | Relative proteolytic activity [8] | Relative proteolytic activity [9] | Relative proteolytic activity [10] | Relative proteolytic activity [11] | Cleavage of membrane-bound CD23 from the cell surface (membrane-bound CD23) | further results |
| --- | --- | --- | --- | --- | --- | --- | --- | --- | --- | --- | --- | --- | --- |
| IFN-γ: interferon-γ |  |  |  |  |  |  |  |  |  |  |  |  | Up-regulation of ADAM8 at the protein level (ADAM8): approximately ten-fold |
| B1 | *** | *** | ***** | * | **** | *** | *** | *** | * | *** | ***** |  |  |
| B2 | *** | *** | ***** | * | **** | *** | *** | *** | * | *** | ***** |  |  |
| B3 |  |  |  |  |  |  |  |  |  |  |  | similarly found to cleave membrane-bound CD23 |  |
| B4 | *** | *** | ***** | * | **** | *** | *** | *** | * | *** | ***** |  | Hill coefficient [3]: allosteric kinetics with a Hill coefficient of approximately 3; K0.5 (substrate concentration at which the enzyme activity was 50% of the Vmax) [3]: 5 µM; Hill coefficient [5]: allosteric kinetics with a Hill coefficient of approximately 3; K0.5 (substrate concentration at which the enzyme activity was 50% of the Vmax) [5]: 5 µM; Hill coefficient [7]: allosteric kinetics with a Hill coefficient of approximately 3; K0.5 (substrate concentration at which the enzyme activity was 50% of the Vmax) [7]: 5 µM; FRET peptide zymography [11]: lanes 2 and 3 contain active, processed, ADAM8 preparations; Hill coefficient [11]: allosteric kinetics with a Hill coefficient of approximately 3; K0.5 (substrate concentration at which the enzyme activity was 50% of the Vmax) [11]: 2.5 µM |
| B5 | *** | (-) | (-) | ***** | (-) | (-) | *** | (-) | *** | (-) | (-) | does not cleave CD 23 |  |
